Our source for the Kd values is US6344321, “Nucleic acid ligands which bind to hepatocyte growth factor/scatter factor (HGF/SF) or its receptor c-met” (Gilead Sciences, Inc.).

To fix the notation:
B1: 10-40 (ssRNA)
RNA: GGGAGAUAAGAAUAAACGCUCAAUGUCGUUAGUUUAUUGACAAGGCCCGAAGUUCGACAGGAGGCUCACAACAGGC
modifications: 2'-F pyrimidines
B2: 10-29 (ssRNA)
RNA: GGGAGAUAAGAAUAAACGCUCAAUCUGUUGGCGUCGUUCUCCUGACCCUCCUCUUCGACAGGAGGCUCACAACAGGC
modifications: 2'-F pyrimidines
B3: 10-52 (ssRNA)
RNA: GGGAGAUAAGAAUAAACGCUCAAUCUUAUUGUGUCCAGCUUCUCCCUGCAGGCUUCGACAGGAGGCUCACAACAGGC
modifications: 2'-F pyrimidines
B4: 10-13 (ssRNA)
RNA: GGGAGAUAAGAAUAAACGCUCAAGAUCUGUUGGCGUGUCUACCCGACCCUCCUUUCGACAGGAGGCUCACAACAGGC
modifications: 2'-F pyrimidines
B5: 10-62 (ssRNA)
RNA: GGGAGAUAAGAAUAAACGCUCAAGUUAGACUCAACAUGAGUCCCAGCCUCAAUUCGACAGGAGGCUCACAACAGGC
modifications: 2'-F pyrimidines
B6: 10-3 (ssRNA)
RNA: GGGAGAUAAGAAUAAACGCUCAAGCCUGAGUUAAACAUGACGGGUUUUGUGACCCCUUUCGACAGGAGGCUCACAACAGGC
modifications: 2'-F pyrimidines
B7: 8-203 (ssRNA)
RNA: GGGAGGACGAUGCGGCGCGAGCCUAUUUAUGUCAUCAUGUCUGUGCAGACGACUCGCCCGA
modifications: 2'-F pyrimidines
B8: 8-215 (ssRNA)
RNA: B7 RNA with C18U, U44G, G45U
modifications: 2'-F pyrimidines
B9: 10-7 (ssRNA)
RNA: GGGAGAUAAGAAUAAACGCUCAAUGCCUUAAGAGCGGAACUCCCUGACCCACCUUCGACAGGAGGCUCACAACAGGC
modifications: 2'-F pyrimidines
B10: 10-47 (ssRNA)
RNA: GGGAGAUAAGAAUAAACGCUCAAGUCAAGAGGAAAUGACACGGCUCCACUUUUAUUCGACAGGAGGCUCACAACAGGC
modifications: 2'-F pyrimidines
B11: 10-37 (ssRNA)
RNA: GGGAGAUAAGAAUAAACGCUCAAGUCUGAGUCCGUAGGGCGAUUUGUGUCCCUUCGACAGGAGGCUCACAACAGGC
modifications: 2'-F pyrimidines
B12: 10-2 (ssRNA)
RNA: GGGAGAUAAGAAUAAACGCUCAAGCCUGAGUUAAACAUGACGGUUUGUGACCCUUCGACAGGAGGCUCACAACAGGC
modifications: 2'-F pyrimidines
B13: 10-23 (ssRNA)
RNA: B12 RNA with C25U, A33G, A34G, U38C, G39A, G43C, U44A, U48A
modifications: 2'-F pyrimidines
B14: 10-8 (ssRNA)
RNA: GGGAGAUAAGAAUAAACGCUCAAUUGACAAGGUACCUGUUGCCUGGCGUUUCUUUCGACAGGAGGCUCACAACAGGC
modifications: 2'-F pyrimidines
B15: 10-36 (ssRNA)
RNA: GGGAGAUAAGAAUAAACGCUCAACGUUAGCAUCUGAACGAUGCCCAGCCUCAAUUCGACAGGAGGCUCACAACAGGC
modifications: 2'-F pyrimidines
B16: 10-72 (ssRNA)
RNA: GGGAGAUAAGAAUAAACGCUCAAUGUGGCACUGUUGUCCACAAGGGCCUCAUUCGACAGGAGGCUCACAACAGGC
modifications: 2'-F pyrimidines
B17: 10-76 (ssRNA)
RNA: GGGAGAUAAGAAUAAACGCUCAAAGUUAGGCUUUAAAGCACGAUAAUCAGCAUUCGACAGGAGGCUCACAACAGGC
modifications: 2'-F pyrimidines

Positions count from the first letter of the chain named.

HGF (hepatocyte growth factor/scatter factor), sequence (P14210 32-494, chain 1 of 2): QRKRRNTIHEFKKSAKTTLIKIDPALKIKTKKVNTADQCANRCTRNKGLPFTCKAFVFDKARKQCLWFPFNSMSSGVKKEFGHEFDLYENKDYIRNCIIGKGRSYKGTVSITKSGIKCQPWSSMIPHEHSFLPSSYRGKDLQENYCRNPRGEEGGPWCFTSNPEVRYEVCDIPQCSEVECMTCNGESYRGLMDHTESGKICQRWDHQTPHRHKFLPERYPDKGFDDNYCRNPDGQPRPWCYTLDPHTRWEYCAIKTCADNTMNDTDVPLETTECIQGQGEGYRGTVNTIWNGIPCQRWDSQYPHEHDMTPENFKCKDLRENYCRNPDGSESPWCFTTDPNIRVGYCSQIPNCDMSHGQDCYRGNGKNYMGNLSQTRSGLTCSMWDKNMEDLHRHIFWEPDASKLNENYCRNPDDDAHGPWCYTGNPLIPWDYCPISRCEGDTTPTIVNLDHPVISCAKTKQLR
HGF (hepatocyte growth factor/scatter factor), sequence (P14210 495-728, chain 2 of 2): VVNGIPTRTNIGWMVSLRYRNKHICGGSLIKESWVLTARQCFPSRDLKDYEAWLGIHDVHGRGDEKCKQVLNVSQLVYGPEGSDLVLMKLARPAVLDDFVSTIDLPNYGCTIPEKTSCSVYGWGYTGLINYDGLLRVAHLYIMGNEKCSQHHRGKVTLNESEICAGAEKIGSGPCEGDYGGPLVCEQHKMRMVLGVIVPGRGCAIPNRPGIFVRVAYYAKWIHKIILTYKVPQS

The target in the data set is HGF (hepatocyte growth factor/scatter factor) (UniProt P14210;P14210 P14210:32-494,P14210:495-728). The data set is described as follows: filter; HBSMC, 37C. The note with it: tags: R&D Systems. Here is the method:
In binding reactions, RNA concentrations were kept as low as possible—between 1 and 20 pM—to ensure equilibrium in conditions of protein excess. Oligonucleotides were incubated for 15 minutes at 37° C. with varying amounts of the protein in 43 µl of the binding buffer. Thirty-two microliters of each binding mixture placed on pre-wet 0.45 µm nitrocellulose filters under suction. Each well was immediately washed with 0.5 ml binding buffer. The amount of radioactivity retained on the filters was quantitated by imaging. The radioactivity that bound to filters in the absence of protein was used for background correction. The percentage of input oligonucleotide retained on each filter spot was plotted against the corresponding log protein concentration. The nonlinear least square method was used to obtain the dissociation constant (K_d; reference Jellinek, Lynott et al. 1993, Proc. Natl. Acad. Sci. USA. 90:11227–31).
As for B1, binding was characterised by a dissociation constant (Kd) of 0.35 nM.

Consider B2, for which the Kd – broadly, the constant that tells how readily two partners part at equilibrium – is 1.75 nM.

Regarding B3, the Kd turned out to be 0.16 nM.

B4 had a Kd of 0.72 nM.

B5 yielded a Kd of 0.44 nM.

B6 registered a Kd of 0.072 nM.

Turning to B7, the Kd was 0.14 nM.

With B8, the Kd turned out to be 0.077 nM.

B9 showed a Kd of 1.45 nM.

The molecule B10 gave a Kd of 0.39 nM.

In turn, B11 displayed a Kd of 3.05 nM.

As to B12, the affinity, expressed as Kd, was 0.069 nM.

As for B13, the Kd is 0.33 nM.

B14 returned a dissociation constant Kd of 0.92 nM.

On to B15, for which binding was characterised by a dissociation constant (Kd) of 1.94 nM.

In turn, B16 registered a Kd of 0.45 nM.

Turning to B17, binding was put at a Kd of 0.17 nM.
